The record followed here is patent US20240115722A1 (RUTGERS THE STATE UNIVERSITY OF NEW JERSEY, published 2024).

Substitutions are numbered along the chain they refer to.

First the molecules themselves.
B1: VH3/VK2 humanized 11C12 antibody (antibody, human IgG1, kappa)
heavy: not shown
light: DIVMTQSPDSLAVSLGERATINCKASQSVDYDGDSYMNWYQQKPGKAPKLLIYGASNLESGIPDRFSGSGSGTDFTLTISRLEPEDAASYYCQQSNEDPFTFGQGTKLEIKRTVAAPSVFIFPPSDEQLKSGTASVVCLLNNFYPREAKVQWKVDNALQSGNSQESVTEQDSKDSTYSLSSTLTLSKADYEKHKVYACEVTHQGLSSPVTKSFNRGEC
notes: Human IgG1/kappa; tested as HEK293 EBNA supernatant; also called H3K2
B2: VH1/VK1 humanized 11C12 antibody (antibody, human IgG1, kappa)
heavy: not shown
light: B1 light with D9G, P84E
notes: Human IgG1/kappa; tested as HEK293 EBNA supernatant; also called H1K1
B3: VH6/VK5 humanized 11C12 antibody (antibody, human IgG1, kappa, V domains shown)
VH: EVQLVESGGGLVQPGGSLKLSCAASGFTFSTFGIHWVRQAPGKGLEWVASISGASTTIYYADSVKGRFTISRDNSKNTLYLQMNSLRAEDTAVYYCARYGTSFPYGLDYWGQGTLVTVSS
VL: DIVMTQSPDSLAVSLGERATINCKSSQSVDYDGDSYMNWYQQKPGKAPKLLIYGASNLESGIPDRFSGSGSGTDFTLTISRLEPEDAAVYYCQQSNEDPFTFGQGTKLEIKR
notes: Human IgG1/kappa; tested as HEK293 EBNA supernatant; also called H6K5
B4: VH3/VK1 humanized 11C12 antibody (antibody, human IgG1, kappa)
heavy: not shown
light: B1 light with D9G, P84E
notes: Human IgG1/kappa; tested as HEK293 EBNA supernatant; also called H3K1
B5: VH2/VK4 humanized 11C12 antibody (antibody, human IgG1, kappa)
heavy: not shown
light: B1 light with A25S
notes: Human IgG1/kappa; tested as HEK293 EBNA supernatant; also called H2K4
B6: VH5/VK5 humanized 11C12 antibody (antibody, human IgG1, kappa, V domains shown)
VH: B3 VH with S50Y
VL: B3 VL
notes: Human IgG1/kappa; tested as HEK293 EBNA supernatant; also called H5K5
B7: VH2/VK2 humanized 11C12 antibody (antibody, human IgG1, kappa)
heavy: not shown
light: B1 light
notes: Human IgG1/kappa; tested as HEK293 EBNA supernatant; also called H2K2
B8: VH2/VK5 humanized 11C12 antibody (antibody, human IgG1, kappa)
heavy: not shown
light: B1 light with A25S, S89V
notes: Human IgG1/kappa; tested as HEK293 EBNA supernatant; also called H2K5
B9: VH3/VK5 humanized 11C12 antibody (antibody, human IgG1, kappa)
heavy: not shown
light: B1 light with A25S, S89V
notes: Human IgG1/kappa; tested as HEK293 EBNA supernatant; also called H3K5
B10: VH4/VK5 humanized 11C12 antibody (antibody, human IgG1, kappa, V domains shown)
VH: B3 VH with S50Y, S63T
VL: B3 VL
notes: Human IgG1/kappa; tested as HEK293 EBNA supernatant; also called H4K5
B11: VH4/VK1 humanized 11C12 antibody (antibody, human IgG1, kappa, V domains shown)
VH: B3 VH with S50Y, S63T
VL: B3 VL with D9G, S25A, P84E, V89S
notes: Human IgG1/kappa; tested as HEK293 EBNA supernatant; also called H4K1
B12: VH1/VK4 humanized 11C12 antibody (antibody, human IgG1, kappa)
heavy: not shown
light: B1 light with A25S
notes: Human IgG1/kappa; tested as HEK293 EBNA supernatant; also called H1K4
B13: VH6/VK1 humanized 11C12 antibody (antibody, human IgG1, kappa, V domains shown)
VH: B3 VH
VL: B3 VL with D9G, S25A, P84E, V89S
notes: Human IgG1/kappa; tested as HEK293 EBNA supernatant; also called H6K1
B14: VH5/VK1 humanized 11C12 antibody (antibody, human IgG1, kappa, V domains shown)
VH: B3 VH with S50Y
VL: B3 VL with D9G, S25A, P84E, V89S
notes: Human IgG1/kappa; tested as HEK293 EBNA supernatant; also called H5K1
B15: VH1/VK2 humanized 11C12 antibody (antibody, human IgG1, kappa)
heavy: not shown
light: B1 light
notes: Human IgG1/kappa; tested as HEK293 EBNA supernatant; also called H1K2
B16: VH6/VK4 humanized 11C12 antibody (antibody, human IgG1, kappa, V domains shown)
VH: B3 VH
VL: B3 VL with V89S
notes: Human IgG1/kappa; tested as HEK293 EBNA supernatant; also called H6K4
B17: VH2/VK1 humanized 11C12 antibody (antibody, human IgG1, kappa)
heavy: not shown
light: B1 light with D9G, P84E
notes: Human IgG1/kappa; tested as HEK293 EBNA supernatant; also called H2K1
B18: VH0/VK1 (antibody, human IgG1, kappa, V domains shown)
VH: EVTLKESGGGLVQPGGSRKLSCAASGFTFSTFGIHWVRQAPEKGLEWVAYISGASTTIYYADTVKGRFTISRDNPKNTLFLQMTSLRSEDTAMYYCARYGTSFPYGLDYWGQGTSVTVSS
VL: B3 VL with D9G, S25A, P84E, V89S
notes: tested as HEK supernatant; also called control antibody (chimeric heavy chain with humanized VK1 light chain)
B19: VH3/VK3 humanized 11C12 antibody (antibody, human IgG1, kappa)
heavy: not shown
light: B1 light with S89V
notes: Human IgG1/kappa; tested as HEK293 EBNA supernatant; also called H3K3
B20: VH6/VK2 humanized 11C12 antibody (antibody, human IgG1, kappa, V domains shown)
VH: B3 VH
VL: B3 VL with S25A, V89S
notes: Human IgG1/kappa; tested as HEK293 EBNA supernatant; also called H6K2
B21: VH2/VK3 humanized 11C12 antibody (antibody, human IgG1, kappa)
heavy: not shown
light: B1 light with S89V
notes: Human IgG1/kappa; tested as HEK293 EBNA supernatant; also called H2K3
B22: VH6/VK3 humanized 11C12 antibody (antibody, human IgG1, kappa, V domains shown)
VH: B3 VH
VL: B3 VL with S25A
notes: Human IgG1/kappa; tested as HEK293 EBNA supernatant; also called H6K3
B23: VH4/VK2 humanized 11C12 antibody (antibody, human IgG1, kappa, V domains shown)
VH: B3 VH with S50Y, S63T
VL: B3 VL with S25A, V89S
notes: Human IgG1/kappa; tested as HEK293 EBNA supernatant; also called H4K2
B24: VH1/VK5 humanized 11C12 antibody (antibody, human IgG1, kappa)
heavy: not shown
light: B1 light with A25S, S89V
notes: Human IgG1/kappa; tested as HEK293 EBNA supernatant; also called H1K5
B25: VH1/VK3 humanized 11C12 antibody (antibody, human IgG1, kappa)
heavy: not shown
light: B1 light with S89V
notes: Human IgG1/kappa; tested as HEK293 EBNA supernatant; also called H1K3
B26: VH1/VK0 (antibody, human IgG1, kappa, V domains shown)
VH: B18 VH with K5V, E42G, P75S, F80Y, T84N
VL: DIVMTQSPGSLAVSLGQRATISCKASQSVDYDGDSYMNWYQQKPGQPPKLLIYGASNLESGIPARFSGSGSGTDFTLNIHPVEEEDAASYYCQQSNEDPFTFGSGTKLEIKR
notes: tested as HEK supernatant; also called control antibody (humanized VH1 heavy chain with chimeric light chain)

T1 sequence (P54756 25-573 limits assumed): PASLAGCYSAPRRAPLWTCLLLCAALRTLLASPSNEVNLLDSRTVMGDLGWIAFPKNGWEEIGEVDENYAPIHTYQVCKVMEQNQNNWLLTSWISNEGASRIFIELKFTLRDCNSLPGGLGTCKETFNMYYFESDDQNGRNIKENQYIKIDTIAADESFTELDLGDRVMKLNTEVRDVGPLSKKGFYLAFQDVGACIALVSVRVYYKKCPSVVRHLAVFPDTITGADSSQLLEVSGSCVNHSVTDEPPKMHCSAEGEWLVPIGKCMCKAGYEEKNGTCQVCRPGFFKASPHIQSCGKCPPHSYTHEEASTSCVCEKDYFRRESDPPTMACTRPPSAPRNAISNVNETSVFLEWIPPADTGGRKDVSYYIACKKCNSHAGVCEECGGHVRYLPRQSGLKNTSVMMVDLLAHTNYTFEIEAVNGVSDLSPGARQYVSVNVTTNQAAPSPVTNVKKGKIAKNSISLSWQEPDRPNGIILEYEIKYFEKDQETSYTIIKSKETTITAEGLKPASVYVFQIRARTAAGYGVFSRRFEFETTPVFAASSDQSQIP

The experiment has as its target T1, recombinant human EphA5 (rhEphA5) antigen (human, UniProt P54756 25-573).
T1 construct: also called human EphA5 (R and D systems, Cat. No. 3036-A5); recombinant EphA5
The experiment can be described thus: SPR single-cycle kinetics (Biacore T200), IgG from HEK supernatant captured on anti-human IgG CM5 chip, rhEphA5 as analyte, 1:1 fit. Also noted: Relative KD: reference not given here. The protocol:
Kinetic analysis was carried out on a Biacore T200. Each antibody was captured on a CM5 chip coupled with an anti-human IgG using standard amine chemistry before increasing concentrations of antigen were injected and a single off-rate was determined.
Kinetic experiments were performed at 25° C. on a Biacore T200 running Biacore T200 Control software V2.0.1 and Evaluation software V3.0 (Cytiva, Uppsala, Sweden).
HBS-P+ (Cytiva, Uppsala, Sweden), supplemented with 1% BSA (Sigma, Dorset, UK) was used as running buffer as well as for ligand and analyte dilutions. Supernatants containing IgG were diluted in running buffer to 1 μg/mL. At the start of each cycle, antibodies were loaded onto Fc2, Fc3 and Fc4 of an anti-human IgG CM5 sensor chip (Cytiva, Little Chalfont, UK). Ig were captured at a flow rate of […] to give an immobilization level (RL) of ˜60 RU. The surface was then allowed to stabilize.
A general note: In SPR one partner is held on a chip, and binding of the other changes the refractive index at the surface.
Turning to B1, the Kd – broadly, the constant that tells how readily two partners part at equilibrium – was determined as 0.968 nM; the “Relative KD” value was 0.73; the koff (in general, the rate constant with which the complex falls apart) was 0.0013 s⁻¹.

Regarding B2, the Kd was 1.02 nM, the “Relative KD” value was found to be 0.77 and the koff came out at 0.00128 s⁻¹.

Turning to B3, the Kd was found to be 7.1 nM, the “Relative KD” value worked out at 5.34 and the koff was 0.285 s⁻¹.

Consider B4, for which the Kd worked out at 0.884 nM, the “Relative KD” value amounted to 0.66 and the koff was 0.00123 s⁻¹.

As for B5, the Kd is 0.917 nM, the “Relative KD” value was determined as 0.69 and the off-rate constant (koff) came to 0.00126 s⁻¹.

In the case of B6, the equilibrium dissociation constant (Kd) stood at 1.03 nM, the “Relative KD” value was 0.77 and the koff came out at 0.0014 s⁻¹.

As for B7, the dissociation constant Kd was 0.971 nM, the “Relative KD” value amounted to 0.73 and the off-rate constant (koff) was determined as 0.00126 s⁻¹.

B8: the Kd was determined as 1.05 nM, the “Relative KD” value amounted to 0.79 and the off-rate (koff) was 0.0014 s⁻¹.

With B9, the Kd is 1.1 nM, the “Relative KD” value turned out to be 0.83 and the off-rate (koff) stood at 0.00143 s⁻¹.

In the case of B10, the Kd came to 0.996 nM, the “Relative KD” value amounted to 0.75 and the koff was 0.00137 s⁻¹.

In the case of B11, the dissociation constant Kd came to 0.975 nM, the “Relative KD” value was found to be 0.73 and the koff worked out at 0.00129 s⁻¹.

B12: the Kd came to 1.1 nM, the “Relative KD” value came to 0.83 and the dissociation rate constant (koff) was 0.00137 s⁻¹.

As for B13, the Kd worked out at 10 nM, the “Relative KD” value amounted to 7.52 and the off-rate (koff) is 0.165 s⁻¹.

For the molecule B14, the dissociation constant Kd stood at 0.947 nM, the “Relative KD” value turned out to be 0.71 and the koff amounted to 0.00127 s⁻¹.

B15: the dissociation constant (Kd) came to 0.968 nM, the “Relative KD” value came to 0.73 and the koff turned out to be 0.00126 s⁻¹.

For the molecule B16, the dissociation constant (Kd) was 9.76 nM, the “Relative KD” value was determined as 7.34 and the koff turned out to be 0.209 s⁻¹.

For the molecule B17, the dissociation constant Kd turned out to be 0.89 nM, the “Relative KD” value was determined as 0.67 and the dissociation rate constant (koff) amounted to 0.0012 s⁻¹.

As for B18, the Kd is 1.12 nM, the “Relative KD” value is 0.84 and the koff amounted to 0.00137 s⁻¹.

For B19, the dissociation constant (Kd) worked out at 1.01 nM, the “Relative KD” value is 0.76 and the off-rate (koff) was found to be 0.00133 s⁻¹.

B20: the Kd was determined as 9.49 nM, the “Relative KD” value is 7.14 and the dissociation rate constant (koff) turned out to be 0.165 s⁻¹.

As for B21, the Kd is 0.985 nM, the “Relative KD” value was found to be 0.74 and the off-rate constant (koff) turned out to be 0.00132 s⁻¹.

Consider B22, for which the Kd was 6.52 nM, the “Relative KD” value is 4.9 and the koff is 0.341 s⁻¹.

On to B23, for which the equilibrium dissociation constant (Kd) came out at 0.854 nM, the “Relative KD” value worked out at 0.64 and the koff is 0.00114 s⁻¹.

Consider B24, for which the equilibrium dissociation constant (Kd) is 1.12 nM, the “Relative KD” value amounted to 0.84 and the koff stood at 0.00139 s⁻¹.

Consider B25, for which the Kd is 0.948 nM, the “Relative KD” value turned out to be 0.71 and the off-rate constant (koff) was found to be 0.00125 s⁻¹.

On to B26, for which the equilibrium dissociation constant (Kd) was 1.04 nM, the “Relative KD” value worked out at 0.78 and the off-rate constant (koff) turned out to be 0.00127 s⁻¹.
